Results from patent publication US20140221622A1.

Biological target: biotin-labeled cMet (UniProt P08581)
Assay: indirect ELISA: antibody captured on anti-IgG Fc coated plate, biotin-labeled cMet detected with streptavidin-HRP, OD450; fit value of a flat control curve, unit taken from the axis

Chain of biotin-labeled cMet (P08581 25-932 limits assumed): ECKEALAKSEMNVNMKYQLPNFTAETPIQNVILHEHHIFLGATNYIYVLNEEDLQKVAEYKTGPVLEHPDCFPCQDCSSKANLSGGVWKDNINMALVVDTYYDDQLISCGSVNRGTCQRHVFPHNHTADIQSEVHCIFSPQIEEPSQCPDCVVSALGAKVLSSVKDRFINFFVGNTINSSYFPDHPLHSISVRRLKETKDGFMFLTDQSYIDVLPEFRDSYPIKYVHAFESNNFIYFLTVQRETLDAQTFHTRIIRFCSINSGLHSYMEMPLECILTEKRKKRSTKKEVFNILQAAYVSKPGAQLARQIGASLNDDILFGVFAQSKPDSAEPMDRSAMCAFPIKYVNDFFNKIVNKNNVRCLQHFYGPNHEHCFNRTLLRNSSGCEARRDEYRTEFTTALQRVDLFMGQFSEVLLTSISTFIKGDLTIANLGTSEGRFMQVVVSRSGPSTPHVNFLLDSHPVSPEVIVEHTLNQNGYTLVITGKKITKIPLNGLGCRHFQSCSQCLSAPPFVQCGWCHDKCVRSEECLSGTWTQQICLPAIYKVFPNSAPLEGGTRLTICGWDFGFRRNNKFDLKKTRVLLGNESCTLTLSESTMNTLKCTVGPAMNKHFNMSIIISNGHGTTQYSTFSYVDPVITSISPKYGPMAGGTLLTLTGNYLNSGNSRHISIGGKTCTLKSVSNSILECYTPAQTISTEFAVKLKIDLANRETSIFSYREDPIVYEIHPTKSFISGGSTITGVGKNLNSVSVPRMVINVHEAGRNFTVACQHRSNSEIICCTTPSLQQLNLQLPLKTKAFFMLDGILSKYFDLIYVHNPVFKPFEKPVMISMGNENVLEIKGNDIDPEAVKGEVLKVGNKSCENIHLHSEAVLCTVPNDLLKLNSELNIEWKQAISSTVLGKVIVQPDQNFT

## IL-1β (antibody)
  IC50: 1.1 nM
